Source: patent publication US20030049246A1

Key:
[1] = molecular target: SHH (chick, endogenous in cerebellar cortical explants) (chick) (UniProt Q91035); assay: cell-based or functional assay
[2] = molecular target: SHH (mouse, endogenous in purified granule neuron precursor aggregates) (mouse) (UniProt Q62226); assay: cell-based or functional assay
Chain of SHH (mouse, endogenous in purified granule neuron precursor aggregates) (mouse) (Q62226 25-198 limits assumed): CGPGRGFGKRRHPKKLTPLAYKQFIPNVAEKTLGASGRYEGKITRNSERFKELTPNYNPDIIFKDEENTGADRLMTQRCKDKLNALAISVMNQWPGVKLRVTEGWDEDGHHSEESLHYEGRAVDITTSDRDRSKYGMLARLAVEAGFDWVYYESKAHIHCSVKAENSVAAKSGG

Chain of SHH (chick, endogenous in cerebellar cortical explants) (chick) (Q91035 27-200 limits assumed): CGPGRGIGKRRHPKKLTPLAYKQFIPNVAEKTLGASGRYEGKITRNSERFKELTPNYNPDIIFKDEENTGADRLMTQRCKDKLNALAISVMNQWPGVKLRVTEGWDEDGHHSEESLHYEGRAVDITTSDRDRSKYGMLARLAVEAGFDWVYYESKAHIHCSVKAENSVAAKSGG

- fold decrease in BrdU incorporation inside D10 chick cerebellar explants (96 h) [1]: 3 to 4 fold
- fold decrease in proliferation of purified mouse granule neuron aggregates [2]: 3 to 4 fold
Substance: blocking anti-SHH monoclonal antibody 5E1
